This is an account of results in paper PMC4750549.

The target in experiment [1] is CD200 (Homo sapiens) (UniProt P41217). The note with it: cited from earlier work.
The target of experiment [2] is CD200 (Mus musculus) (UniProt O54901). As to conditions: cited from earlier work.
Experiment [3] concerns the target CD200 (Rattus norvegicus) (UniProt P04218). As to conditions: cited from earlier work.
In experiment [4] the target is rabbit CD200R rCD4d3+4 chimeric protein, biotinylated (rabbit (Oryctolagus cuniculus)). Put plainly: SPR; BIAcore 3000, 37 °C, 10 mM HEPES pH 7.5, 150 mM NaCl, 3 mM EDTA, 0.02% P20; biotinylated rCD4d3+4 chimeras from concentrated tissue culture supernatants immobilised on streptavidin coated CM5 chip; purified monomeric soluble protein passed over in increasing concentrations; equilibrium binding, Langmuir isotherm. A general note: In SPR one partner is held on a chip, and binding of the other changes the refractive index at the surface.

In experiment [5] the target is rat CD200R rCD4d3+4 chimeric protein, biotinylated (rat) (UniProt Q9ES58). The experiment is described as above.
For experiment [6], the target named is rabbit CD200 rCD4d3+4 chimeric protein, biotinylated (rabbit (Oryctolagus cuniculus)). Described as above.

UniProt P41217, sequence (P41217 31-232): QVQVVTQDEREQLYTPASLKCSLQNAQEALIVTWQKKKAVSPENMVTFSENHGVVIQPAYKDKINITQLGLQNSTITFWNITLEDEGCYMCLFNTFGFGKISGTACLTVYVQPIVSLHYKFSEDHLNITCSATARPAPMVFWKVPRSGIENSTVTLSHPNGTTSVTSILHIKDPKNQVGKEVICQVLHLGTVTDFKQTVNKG
UniProt O54901, sequence (O54901 31-232): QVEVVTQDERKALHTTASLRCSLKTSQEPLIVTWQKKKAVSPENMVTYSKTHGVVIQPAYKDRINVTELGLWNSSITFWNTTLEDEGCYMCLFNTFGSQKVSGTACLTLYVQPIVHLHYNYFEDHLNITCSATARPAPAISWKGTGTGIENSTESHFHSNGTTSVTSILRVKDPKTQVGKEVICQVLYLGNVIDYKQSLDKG
UniProt P04218, sequence (P04218 31-232): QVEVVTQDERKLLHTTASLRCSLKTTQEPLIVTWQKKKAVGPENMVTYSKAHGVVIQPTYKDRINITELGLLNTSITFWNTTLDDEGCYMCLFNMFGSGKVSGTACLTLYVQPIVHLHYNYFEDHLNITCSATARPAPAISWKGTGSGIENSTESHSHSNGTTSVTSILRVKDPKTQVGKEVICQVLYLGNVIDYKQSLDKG
rabbit CD200R rCD4d3+4 chimeric protein, biotinylated (rabbit (Oryctolagus cuniculus)), sequence (main, as listed by the source mutant): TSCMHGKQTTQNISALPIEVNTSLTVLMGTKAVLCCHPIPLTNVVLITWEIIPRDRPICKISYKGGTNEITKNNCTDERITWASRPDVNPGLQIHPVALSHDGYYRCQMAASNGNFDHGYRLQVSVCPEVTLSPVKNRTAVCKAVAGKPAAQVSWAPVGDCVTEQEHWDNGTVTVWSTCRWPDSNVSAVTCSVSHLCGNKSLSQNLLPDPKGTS

For CD200R (from UniProt Q8TD46), the dissociation constant Kd in experiment [1] is 0.5 µM.
Consider CD200R (from UniProt Q9ES57), for which, in experiment [2], the Kd is 4 µM.
On to CD200R (from UniProt Q9ES58), for which the Kd in experiment [3] is 1.5 µM.
Take “soluble recombinant rabbit CD200 (extracellular region, His tag) (from UniProt A0A0S4XRM6 1-233) (ligand)”: the figures for the Kd in experiment [4] and in experiment [5] were 3.3 to 3.4 µM and 5.1 µM, respectively.
In experiment [6], “soluble recombinant rabbit CD200R (extracellular region, His tag) (from UniProt A0A0S4XR64 1-238) (receptor)” yielded an equilibrium dissociation constant (Kd) of 3.3 to 3.4 µM.

The term Kd denotes the free concentration of one partner at which half of the binding sites on the other are occupied at equilibrium, for simple one-to-one binding.
